Paper PMC8024894

What was measured:
[1] = biological target: endogenous neurexin on the surface of immature hippocampal neurons (mouse (endogenous in primary hippocampal neurons)) (UniProt Q9CS84); assay: immunostaining of cells or tissue; cell surface binding assay, apparent Kd: Fc protein at 0-100 nM in HEPES bath solution, 1 h at room temperature, on DIV10 hippocampal neurons transduced with control (empty vector) lentivirus; Fc signal normalised to neurexin staining
[2] = biological target: endogenous neurexin on the surface of immature hippocampal neurons (mouse (endogenous in primary hippocampal neurons)) (UniProt Q9CS84); assay: immunostaining of cells or tissue; cell surface binding assay, apparent Kd: Fc protein at 0-100 nM in HEPES bath solution, 1 h at room temperature, on DIV10 hippocampal neurons transduced with CA10-FLAG lentivirus; Fc signal normalised to neurexin staining

Chain of UniProt Q9CS84 (Q9CS84 31-1514): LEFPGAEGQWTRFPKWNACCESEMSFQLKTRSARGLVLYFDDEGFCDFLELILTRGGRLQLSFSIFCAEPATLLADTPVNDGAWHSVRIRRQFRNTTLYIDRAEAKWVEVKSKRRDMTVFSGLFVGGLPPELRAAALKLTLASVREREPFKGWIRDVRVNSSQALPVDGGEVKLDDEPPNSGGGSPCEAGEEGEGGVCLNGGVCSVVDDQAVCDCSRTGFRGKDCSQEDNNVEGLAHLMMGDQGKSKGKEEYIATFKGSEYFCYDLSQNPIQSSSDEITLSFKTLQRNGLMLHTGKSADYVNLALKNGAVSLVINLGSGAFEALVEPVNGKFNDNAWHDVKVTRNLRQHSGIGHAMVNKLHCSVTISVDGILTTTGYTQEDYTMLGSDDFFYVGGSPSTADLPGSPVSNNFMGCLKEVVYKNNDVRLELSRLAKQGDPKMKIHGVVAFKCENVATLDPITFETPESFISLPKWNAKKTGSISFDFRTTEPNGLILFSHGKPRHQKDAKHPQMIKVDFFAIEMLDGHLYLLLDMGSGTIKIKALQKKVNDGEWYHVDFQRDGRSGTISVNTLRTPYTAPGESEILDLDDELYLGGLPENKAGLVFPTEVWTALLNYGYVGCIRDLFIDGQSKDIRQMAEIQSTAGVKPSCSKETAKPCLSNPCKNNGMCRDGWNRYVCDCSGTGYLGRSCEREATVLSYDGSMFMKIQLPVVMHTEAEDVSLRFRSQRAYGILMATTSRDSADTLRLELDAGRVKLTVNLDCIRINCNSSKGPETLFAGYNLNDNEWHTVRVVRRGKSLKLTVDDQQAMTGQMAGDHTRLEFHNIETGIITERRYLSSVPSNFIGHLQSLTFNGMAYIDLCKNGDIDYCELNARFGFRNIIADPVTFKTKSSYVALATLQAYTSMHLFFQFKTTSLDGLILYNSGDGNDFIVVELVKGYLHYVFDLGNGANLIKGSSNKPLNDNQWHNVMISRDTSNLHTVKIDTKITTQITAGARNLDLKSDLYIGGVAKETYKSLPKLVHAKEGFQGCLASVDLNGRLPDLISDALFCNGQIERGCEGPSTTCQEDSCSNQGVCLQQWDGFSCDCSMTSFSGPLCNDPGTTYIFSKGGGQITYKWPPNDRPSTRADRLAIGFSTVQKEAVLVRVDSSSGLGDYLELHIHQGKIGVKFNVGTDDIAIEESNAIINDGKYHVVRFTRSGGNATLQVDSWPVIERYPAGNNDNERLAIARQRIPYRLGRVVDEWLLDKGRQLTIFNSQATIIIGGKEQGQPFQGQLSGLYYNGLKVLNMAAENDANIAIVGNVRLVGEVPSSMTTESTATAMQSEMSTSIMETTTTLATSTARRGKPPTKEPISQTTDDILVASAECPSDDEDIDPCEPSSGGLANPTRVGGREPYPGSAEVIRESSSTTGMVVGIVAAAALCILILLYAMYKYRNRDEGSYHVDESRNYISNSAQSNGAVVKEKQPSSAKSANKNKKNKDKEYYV

Molecule: Fc‐tagged Nlgn1 (Fc fusion)
- Kd [1]: 186 nM
- Kd [2]: 223 nM

B1: Fc‐tagged LRRTM2 (Fc fusion)
chain: CPPKCRCEKLLFYCDSQGFHSVPNATDKGSLGLSLRHNHITELERDQFASFSQLTWLHLDHNQISTVKEDAFQGLYKLKELILSSNKIFYLPNTTFTQLINLQNLDLSFNQLSSLHPELFYGLRKLQTLHLRSNSLRTIPVRLFWDCRSLEFLDLSTNRLRSLARNGFAGLIKLRELHLEHNQLTKINFAHFLRLSSLHTLFLQWNKISNLTCGMEWTWGTLEKLDLTGNEIKAIDLTVFETMPNLKILLMDNNKLNSLDSKILNSLRSLTTVGLSGNLWECSARICALASWLGSFQGRWEHSILCHSPDHTQGEDILDAVHGFQLCWNLSTTVTVMATTYRDPTTEYTKRISSSSYHVGDKEIPTTAGIAVTTEEHFPEPDNAIFTQR
- Kd [1]: 29.5 nM
- Kd [2]: 35.3 nM
